{"source": "patent US20130252983", "key": {"[1]": {"test_system": "GAC (S103A), phospho-defective mutant of mouse glutaminase C", "sequence (chain, as listed by the source S103A)": "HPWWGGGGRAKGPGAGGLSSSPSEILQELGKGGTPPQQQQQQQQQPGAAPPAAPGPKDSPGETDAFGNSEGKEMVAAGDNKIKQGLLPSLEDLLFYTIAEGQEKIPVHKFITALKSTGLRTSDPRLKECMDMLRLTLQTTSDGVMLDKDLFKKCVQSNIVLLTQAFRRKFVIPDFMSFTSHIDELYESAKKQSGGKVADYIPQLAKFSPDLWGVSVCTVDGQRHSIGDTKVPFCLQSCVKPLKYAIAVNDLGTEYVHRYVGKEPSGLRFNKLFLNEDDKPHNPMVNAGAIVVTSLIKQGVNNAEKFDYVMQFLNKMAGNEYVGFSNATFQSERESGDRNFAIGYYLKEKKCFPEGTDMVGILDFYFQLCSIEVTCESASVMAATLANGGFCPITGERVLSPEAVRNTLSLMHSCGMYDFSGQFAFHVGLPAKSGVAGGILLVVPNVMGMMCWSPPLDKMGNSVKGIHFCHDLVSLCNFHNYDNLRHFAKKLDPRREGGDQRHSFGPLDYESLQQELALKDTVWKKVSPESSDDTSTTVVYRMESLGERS"}, "[2]": {"test_system": "V5-tagged wild-type mouse glutaminase C (GAC)", "sequence (chain, as listed by the source)": "as the sequence (chain, as listed by the source S103A) above, with A49S counted along it"}, "[3]": {"test_system": "GACΔC, C-terminal truncation mutant of mouse glutaminase C", "sequence (chain, as listed by the source mutant)": "as the sequence (chain, as listed by the source S103A) above, with A49S counted along it"}}}
{"substance": "mTOR (mammalian target of rapamycin)", "values": [{"measurement": "phosphorylation of proteins immunoprecipitated with GAC after addition of radio-labeled ATP under conditions favorable for the activation of the mTOR kinase", "setting": "[1]", "result": "but not for proteins immunoprecipitated with GAC (S103A)"}, {"measurement": "phosphorylation of proteins immunoprecipitated with GAC after addition of radio-labeled ATP under conditions favorable for the activation of the mTOR kinase", "setting": "[2]", "result": "the phosphorylation of proteins immunoprecipitated with wild-type GAC and GACΔC is observed"}, {"measurement": "phosphorylation of proteins immunoprecipitated with GAC after addition of radio-labeled ATP under conditions favorable for the activation of the mTOR kinase", "setting": "[3]", "result": "the phosphorylation of proteins immunoprecipitated with wild-type GAC and GACΔC is observed"}]}
